Measurements: patent publication US5840530

Assays:
[1] = target: recombinant human IL-12 beta1 receptor protein (human); test: equilibrium binding of 125I-labeled IL-12 to transfected COS cells, Scatchard analysis, single site model
[2] = target: recombinant human IL-12 beta2 receptor protein expressed from the B5-10 plasmid on COS cells (human); test: as above

## recombinant human IL-12 (Interleukin-12) (from UniProt P29460) (ligand)
[1]
  Kd: 2 to 5 nM
[2]
  Kd: 2 to 5 nM
